{"source": "the supplement of paper PMC10567573", "parents": {"B1": {"name": "HSP90AB1 (parent)", "chain": "YHTSQSGDEMTSLSEYVSRMKETQ"}}, "data": [{"variants_of": "B1", "assay": "protein stability index of a GFP-peptide fusion (GPS, HEK-293T) (PSI 1-6); higher = more stable", "details": "c terminus: a fixed tail appended", "values": [{"variant": "YHTSQSDDEMTSLSEYVSRMKETQ", "note": "[G7D]", "protein stability index": 4.08}, {"variant": "YHTSQSNDEMTSLSEYVSRMKETQ", "note": "[G7N]", "protein stability index": 2.83}, {"variant": "YHTSQSQDEMTSLSEYVSRMKETQ", "note": "[G7Q]", "protein stability index": 3.78}, {"variant": "YHTSQSRDEMTSLSEYVSRMKETQ", "note": "[G7R]", "protein stability index": 3.44}, {"variant": "YHTSQSMDEMTSLSEYVSRMKETQ", "note": "[G7M]", "protein stability index": 3.47}, {"variant": "YHTSQSLDEMTSLSEYVSRMKETQ", "note": "[G7L]", "protein stability index": 3.61}, {"variant": "YHTSQSFDEMTSLSEYVSRMKETQ", "note": "[G7F]", "protein stability index": 3.17}, {"variant": "YHTSQSEDEMTSLSEYVSRMKETQ", "note": "[G7E]", "protein stability index": 4.12}, {"variant": "YHTSQSKDEMTSLSEYVSRMKETQ", "note": "[G7K]", "protein stability index": 3.33}, {"variant": "YHTSQSWDEMTSLSEYVSRMKETQ", "note": "[G7W]", "protein stability index": 2.99}, {"variant": "YHTSQSTDEMTSLSEYVSRMKETQ", "note": "[G7T]", "protein stability index": 4.32}, {"variant": "YHTSQSHDEMTSLSEYVSRMKETQ", "note": "[G7H]", "protein stability index": 3.65}, {"variant": "YHTSQSCDEMTSLSEYVSRMKETQ", "note": "[G7C]", "protein stability index": 3.33}, {"variant": "YHTSQSADEMTSLSEYVSRMKETQ", "note": "[G7A]", "protein stability index": 3.73}, {"variant": "YHTSQSPDEMTSLSEYVSRMKETQ", "note": "[G7P]", "protein stability index": 3.74}, {"variant": "YHTSQSIDEMTSLSEYVSRMKETQ", "note": "[G7I]", "protein stability index": 3.29}, {"variant": "YHTSQSYDEMTSLSEYVSRMKETQ", "note": "[G7Y]", "protein stability index": 2.98}, {"variant": "YHTSQSSDEMTSLSEYVSRMKETQ", "note": "[G7S]", "protein stability index": 3.67}, {"variant": "YHTSQSVDEMTSLSEYVSRMKETQ", "note": "[G7V]", "protein stability index": 3.26}, {"variant": "YHTSQSGDEMTSLSIYVSRMKETQ", "note": "[E15I]", "protein stability index": 2.37}, {"variant": "YHTSQSGDEMTSLSRYVSRMKETQ", "note": "[E15R]", "protein stability index": 2.85}, {"variant": "YHTSQSGDEMTSLSPYVSRMKETQ", "note": "[E15P]", "protein stability index": 1.87}, {"variant": "YHTSQSGDEMTSLSKYVSRMKETQ", "note": "[E15K]", "protein stability index": 3.48}, {"variant": "YHTSQSGDEMTSLSWYVSRMKETQ", "note": "[E15W]", "protein stability index": 1.48}, {"variant": "YHTSQSGDEMTSLSHYVSRMKETQ", "note": "[E15H]", "protein stability index": 2.96}, {"variant": "YHTSQSGDEMTSLSFYVSRMKETQ", "note": "[E15F]", "protein stability index": 1.99}, {"variant": "YHTSQSGDEMTSLSYYVSRMKETQ", "note": "[E15Y]", "protein stability index": 2.65}, {"variant": "YHTSQSGDEMTSLSAYVSRMKETQ", "note": "[E15A]", "protein stability index": 2.6}, {"variant": "YHTSQSGDEMTSLSQYVSRMKETQ", "note": "[E15Q]", "protein stability index": 3.15}, {"variant": "YHTSQSGDEMTSLSSYVSRMKETQ", "note": "[E15S]", "protein stability index": 2.87}, {"variant": "YHTSQSGDEMTSLSNYVSRMKETQ", "note": "[E15N]", "protein stability index": 3.77}, {"variant": "YHTSQSGDEMTSLSGYVSRMKETQ", "note": "[E15G]", "protein stability index": 2.68}, {"variant": "YHTSQSGDEMTSLSVYVSRMKETQ", "note": "[E15V]", "protein stability index": 1.89}, {"variant": "YHTSQSGDEMTSLSLYVSRMKETQ", "note": "[E15L]", "protein stability index": 1.99}, {"variant": "YHTSQSGDEMTSLSTYVSRMKETQ", "note": "[E15T]", "protein stability index": 2.79}, {"variant": "YHTSQSGDEMTSLSDYVSRMKETQ", "note": "[E15D]", "protein stability index": 3.02}, {"variant": "YHTSQSGDEMTCLSEYVSRMKETQ", "note": "[S12C]", "protein stability index": 2.87}, {"variant": "YHTSQSGDEMTKLSEYVSRMKETQ", "note": "[S12K]", "protein stability index": 3.12}, {"variant": "YHTSQSGDEMTGLSEYVSRMKETQ", "note": "[S12G]", "protein stability index": 3.75}, {"variant": "YHTSQSGDEMTNLSEYVSRMKETQ", "note": "[S12N]", "protein stability index": 3.64}, {"variant": "YHTSQSGDEMTALSEYVSRMKETQ", "note": "[S12A]", "protein stability index": 3.21}, {"variant": "YHTSQSGDEMTQLSEYVSRMKETQ", "note": "[S12Q]", "protein stability index": 3.36}, {"variant": "YHTSQSGDEMTILSEYVSRMKETQ", "note": "[S12I]", "protein stability index": 2.92}, {"variant": "YHTSQSGDEMTWLSEYVSRMKETQ", "note": "[S12W]", "protein stability index": 2.6}, {"variant": "YHTSQSGDEMTDLSEYVSRMKETQ", "note": "[S12D]", "protein stability index": 4.14}, {"variant": "YHTSQSGDEMTLLSEYVSRMKETQ", "note": "[S12L]", "protein stability index": 2.49}, {"variant": "YHTSQSGDEMTYLSEYVSRMKETQ", "note": "[S12Y]", "protein stability index": 2.81}, {"variant": "YHTSQSGDEMTELSEYVSRMKETQ", "note": "[S12E]", "protein stability index": 4.28}, {"variant": "YHTSQSGDEMTTLSEYVSRMKETQ", "note": "[S12T]", "protein stability index": 3.88}, {"variant": "YHTSQSGDEMTFLSEYVSRMKETQ", "note": "[S12F]", "protein stability index": 2.98}, {"variant": "YHTSQSGDEMTVLSEYVSRMKETQ", "note": "[S12V]", "protein stability index": 2.99}, {"variant": "YHTSQSGDEMTHLSEYVSRMKETQ", "note": "[S12H]", "protein stability index": 3.52}, {"variant": "YHTSQSGDEMTPLSEYVSRMKETQ", "note": "[S12P]", "protein stability index": 3.52}, {"variant": "YHTSQSGDEMTSQSEYVSRMKETQ", "note": "[L13Q]", "protein stability index": 4.59}, {"variant": "YHTSQSGDEMTSDSEYVSRMKETQ", "note": "[L13D]", "protein stability index": 4.11}, {"variant": "YHTSQSGDEMTSMSEYVSRMKETQ", "note": "[L13M]", "protein stability index": 4.04}, {"variant": "YHTSQSGDEMTSRSEYVSRMKETQ", "note": "[L13R]", "protein stability index": 4.21}, {"variant": "YHTSQSGDEMTSSSEYVSRMKETQ", "note": "[L13S]", "protein stability index": 3.68}, {"variant": "YHTSQSGDEMTSKSEYVSRMKETQ", "note": "[L13K]", "protein stability index": 3.82}, {"variant": "YHTSQSGDEMTSTSEYVSRMKETQ", "note": "[L13T]", "protein stability index": 4.25}, {"variant": "YHTSQSGDEMTSCSEYVSRMKETQ", "note": "[L13C]", "protein stability index": 3.52}, {"variant": "YHTSQSGDEMTSGSEYVSRMKETQ", "note": "[L13G]", "protein stability index": 4.27}, {"variant": "YHTSQSGDEMTSPSEYVSRMKETQ", "note": "[L13P]", "protein stability index": 3.74}, {"variant": "YHTSQSGDEMTSESEYVSRMKETQ", "note": "[L13E]", "protein stability index": 4.62}, {"variant": "YHTSQSGDEMTSHSEYVSRMKETQ", "note": "[L13H]", "protein stability index": 3.88}, {"variant": "YHTSQSGDEMTSYSEYVSRMKETQ", "note": "[L13Y]", "protein stability index": 3.38}, {"variant": "YHTSQSGDEMTSASEYVSRMKETQ", "note": "[L13A]", "protein stability index": 4.37}, {"variant": "YHTSQSGDEMTSFSEYVSRMKETQ", "note": "[L13F]", "protein stability index": 2.18}, {"variant": "YHTSQSGDEMTSNSEYVSRMKETQ", "note": "[L13N]", "protein stability index": 4.34}, {"variant": "YHTSQSGDEMTSVSEYVSRMKETQ", "note": "[L13V]", "protein stability index": 3.32}, {"variant": "YHTSQSGDEMTSISEYVSRMKETQ", "note": "[L13I]", "protein stability index": 3.5}, {"variant": "YHTSQSGDQMTSLSEYVSRMKETQ", "note": "[E9Q]", "protein stability index": 3.43}, {"variant": "YHTSQSGDPMTSLSEYVSRMKETQ", "note": "[E9P]", "protein stability index": 3.51}, {"variant": "YHTSQSGDLMTSLSEYVSRMKETQ", "note": "[E9L]", "protein stability index": 2.09}, {"variant": "YHTSQSGDCMTSLSEYVSRMKETQ", "note": "[E9C]", "protein stability index": 2.48}, {"variant": "YHTSQSGDTMTSLSEYVSRMKETQ", "note": "[E9T]", "protein stability index": 3.66}, {"variant": "YHTSQSGDRMTSLSEYVSRMKETQ", "note": "[E9R]", "protein stability index": 1.99}, {"variant": "YHTSQSGDGMTSLSEYVSRMKETQ", "note": "[E9G]", "protein stability index": 3.67}, {"variant": "YHTSQSGDDMTSLSEYVSRMKETQ", "note": "[E9D]", "protein stability index": 3.79}, {"variant": "YHTSQSGDFMTSLSEYVSRMKETQ", "note": "[E9F]", "protein stability index": 2.33}, {"variant": "YHTSQSGDIMTSLSEYVSRMKETQ", "note": "[E9I]", "protein stability index": 2.77}, {"variant": "YHTSQSGDYMTSLSEYVSRMKETQ", "note": "[E9Y]", "protein stability index": 2.58}, {"variant": "YHTSQSGDVMTSLSEYVSRMKETQ", "note": "[E9V]", "protein stability index": 3.12}, {"variant": "YHTSQSGDWMTSLSEYVSRMKETQ", "note": "[E9W]", "protein stability index": 1.87}, {"variant": "YHTSQSGDSMTSLSEYVSRMKETQ", "note": "[E9S]", "protein stability index": 2.91}, {"variant": "YHTSQSGDMMTSLSEYVSRMKETQ", "note": "[E9M]", "protein stability index": 2.52}, {"variant": "YHTSQSGDHMTSLSEYVSRMKETQ", "note": "[E9H]", "protein stability index": 3.11}, {"variant": "YHTSQSGDAMTSLSEYVSRMKETQ", "note": "[E9A]", "protein stability index": 2.78}, {"variant": "YHTSQSGVEMTSLSEYVSRMKETQ", "note": "[D8V]", "protein stability index": 3.47}, {"variant": "YHTSQSGWEMTSLSEYVSRMKETQ", "note": "[D8W]", "protein stability index": 2.17}, {"variant": "YHTSQSGTEMTSLSEYVSRMKETQ", "note": "[D8T]", "protein stability index": 3.24}, {"variant": "YHTSQSGAEMTSLSEYVSRMKETQ", "note": "[D8A]", "protein stability index": 3.53}, {"variant": "YHTSQSGLEMTSLSEYVSRMKETQ", "note": "[D8L]", "protein stability index": 3.31}, {"variant": "YHTSQSGIEMTSLSEYVSRMKETQ", "note": "[D8I]", "protein stability index": 2.32}]}]}
